Here are results for 1 substance from PMC10764318.

What all share (experiment): BLI
On the technique in general: BLI is a label-free optical method that tracks binding on a fibre tip over time.

The target of assay [1] is WRAIR-5004 (rhesus macaque).
Assay [2] has as its target WRAIR-5011 (rhesus macaque).
Assay [3] concerns the target WRAIR-5020 (rhesus macaque).
Assay [4] has as its target WRAIR-5021 (rhesus macaque).

Sequence of WRAIR-5004 (rhesus macaque) (VH, as listed by the source, chain 1 of 2): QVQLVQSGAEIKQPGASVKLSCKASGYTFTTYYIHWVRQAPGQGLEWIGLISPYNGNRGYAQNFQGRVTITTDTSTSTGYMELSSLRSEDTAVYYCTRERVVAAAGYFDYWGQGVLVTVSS
Sequence of WRAIR-5004 (rhesus macaque) (VL, as listed by the source, chain 2 of 2): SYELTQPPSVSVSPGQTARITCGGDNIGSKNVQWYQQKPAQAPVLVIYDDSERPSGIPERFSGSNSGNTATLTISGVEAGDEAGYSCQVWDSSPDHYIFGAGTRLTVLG
Sequence of WRAIR-5021 (rhesus macaque) (VH, as listed by the source, chain 1 of 2): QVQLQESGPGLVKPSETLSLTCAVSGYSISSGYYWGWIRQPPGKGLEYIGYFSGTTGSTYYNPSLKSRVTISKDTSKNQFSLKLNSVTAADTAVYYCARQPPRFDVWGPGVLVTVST
Sequence of WRAIR-5021 (rhesus macaque) (VL, as listed by the source, chain 2 of 2): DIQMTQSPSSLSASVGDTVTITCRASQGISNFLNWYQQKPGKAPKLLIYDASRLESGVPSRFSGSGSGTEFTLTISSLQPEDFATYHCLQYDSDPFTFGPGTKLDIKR
Sequence of WRAIR-5011 (rhesus macaque) (VH, as listed by the source, chain 1 of 2): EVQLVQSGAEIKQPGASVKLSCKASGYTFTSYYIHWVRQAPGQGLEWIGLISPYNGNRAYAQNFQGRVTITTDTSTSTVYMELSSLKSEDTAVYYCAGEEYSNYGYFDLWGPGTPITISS
Sequence of WRAIR-5011 (rhesus macaque) (VL, as listed by the source, chain 2 of 2): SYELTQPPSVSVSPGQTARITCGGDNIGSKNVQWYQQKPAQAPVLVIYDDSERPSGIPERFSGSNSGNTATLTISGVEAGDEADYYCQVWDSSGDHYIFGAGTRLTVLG
Sequence of WRAIR-5020 (rhesus macaque) (VH, as listed by the source, chain 1 of 2): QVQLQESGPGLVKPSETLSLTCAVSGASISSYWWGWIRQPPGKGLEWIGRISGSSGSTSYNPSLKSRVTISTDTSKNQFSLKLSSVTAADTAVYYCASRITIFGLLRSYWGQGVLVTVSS
Sequence of WRAIR-5020 (rhesus macaque) (VL, as listed by the source, chain 2 of 2): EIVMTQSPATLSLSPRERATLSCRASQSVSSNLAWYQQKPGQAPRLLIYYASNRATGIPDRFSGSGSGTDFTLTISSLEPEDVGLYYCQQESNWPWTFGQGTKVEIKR

Consider “SARS-CoV-2 Delta RBD (from UniProt P0DTC2 331-527) (domain or fragment)”, for which the equilibrium dissociation constant (Kd) came to 2.44 nM in assay [1], 0.48 nM in assay [2], 108 nM in assay [3] and 3.62 nM in assay [4].

What is called Kd is the concentration at which binding is half-saturated. Lower therefore signals a tighter complex.
